4 molecules from publication PMC8993412 (Journal of Molecular Biology, 2022) can be followed below.

The target of experiment [1] is SARS-CoV-2 Nsp1, full-length protein (recombinant) (SARS-CoV-2, reference, UniProt P0DTD1). Description: ELISA. For orientation: ELISA stands for enzyme-linked immunosorbent assay.
In experiment [2] the target is Nsp1 in SARS-CoV-2-infected VeroE6 cells (SARS-CoV-2 USA-WA1/2020, UniProt P0DTD1). The experiment in a line: immunostaining of cells or tissue.
Experiment [3] deals with SARS-CoV-2 Nsp12 (recombinant) (SARS-CoV-2, reference, UniProt P0DTD1). Description: western blot. (In general: A western blot detects proteins with antibodies after separation by electrophoresis.)
Experiment [4] addresses Nsp12 in SARS-CoV-2-infected VeroE6 cells (SARS-CoV-2 USA-WA1/2020, UniProt P0DTD1). The experiment in a line: immunostaining of cells or tissue.

B1: Fab 15498 (Fab-phage clone) (Fab, V domains shown)
VH: EVQLVESGGGLVQPGGSLRLSCAASGFNISSSSMHWVRQAPGKGLEWVAAVASFYGATYYADSVKGRFTISADTSKNTAYLQMNSLRAEDTAVYYCARAYHAGLDYWGQGTLVTVSS
VL: DIQMTQSPSSLSASVGDRVTITCRASQSVSSAVAWYQQKPGKAPKLLIYSASSLYSGVPSRFSGSRSGTDFTLTISSLQPEDFATYYCQQWYYYSAAVTFGQGTKVEIK
On to B1, for which, in experiment [1], the binding result was “binds”.

B2: IgG 15497 (anti-Nsp1) (antibody, V domains shown)
VH: EVQLVESGGGLVQPGGSLRLSCAASGFNFSSSSIHWVRQAPGKGLEWVASISSSYGYTYYADSVKGRFTISADTSKNTAYLQMNSLRAEDTAVYYCARWAAMDYWGQGTLVTVSS
VL: DIQMTQSPSSLSASVGDRVTITCRASQSVSSAVAWYQQKPGKAPKLLIYSASSLYSGVPSRFSGSRSGTDFTLTISSLQPEDFATYYCQQYYSLITFGQGTKVEIK
Take B2: the binding result in experiment [2] is given as “binds”.

B3: Fab 15497 (Fab-phage clone) (Fab, V domains shown)
VH: EVQLVESGGGLVQPGGSLRLSCAASGFNFSSSSIHWVRQAPGKGLEWVASISSSYGYTYYADSVKGRFTISADTSKNTAYLQMNSLRAEDTAVYYCARWAAMDYWGQGTLVTVSS
VL: DIQMTQSPSSLSASVGDRVTITCRASQSVSSAVAWYQQKPGKAPKLLIYSASSLYSGVPSRFSGSRSGTDFTLTISSLQPEDFATYYCQQYYSLITFGQGTKVEIK
As to B3, the binding result in experiment [1] was “binds”.

B4: IgG 15884 (anti-Nsp12) (antibody, V domains shown)
VH: EVQLVESGGGLVQPGGSLRLSCAASGFNIYYYSMHWVRQAPGKGLEWVASIYSYYGYTSYADSVKGRFTISADTSKNTAYLQMNSLRAEDTAVYYCARHPAYGGMDYWGQGTLVTVSS
VL: DIQMTQSPSSLSASVGDRVTITCRASQSVSSAVAWYQQKPGKAPKLLIYSASSLYSGVPSRFSGSRSGTDFTLTISSLQPEDFATYYCQQSHWHPITFGQGTKVEIK
With B4, the binding result in experiment [3] and in experiment [4] was “binds” each time.
